Literature values as cited in paper PMC11695704.

Biological target: Clr-b (Mus musculus) (UniProt Q91V08)
UniProt Q91V08, sequence (Q91V08 whole entry): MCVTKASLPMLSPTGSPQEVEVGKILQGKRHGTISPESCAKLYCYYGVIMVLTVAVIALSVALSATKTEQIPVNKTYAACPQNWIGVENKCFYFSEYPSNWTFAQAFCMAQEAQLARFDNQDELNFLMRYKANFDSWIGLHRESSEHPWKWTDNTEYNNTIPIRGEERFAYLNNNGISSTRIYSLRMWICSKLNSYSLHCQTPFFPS

Kd: > 500 µM
Substance: NKR-P1B (from UniProt P27812)
